Test [1] has as its target T1, Strep tagged recombinant human PD-1 (human, UniProt Q15116 25-167, limits assumed).
T1 construct: also called Strep tagged human PD-1; not shown: Strep tag
The test is described as follows: SPR Biacore T200, single cycle kinetics; Strep tagged PD-1 amine coupled to CM-5 (14 RU). As for the experimental part: Single cycle kinetics assays were used to study the interaction between human PD-1 with Humabody® on a Biacore T200 instrument (GE Healthcare). Strep tagged recombinant human PD-1 was amine coupled to one flow cell of a CM-5 chip to create a low density surface (14 RU) using standard Biacore reagents. For the reference flow cell, a blank immobilisation was carried out. A five-point, three-fold dilution series of each Humabody® was made with a top concentration of 25 nM. The binding kinetics were followed by flowing the Humabody® over the chip surface in HBS EP+ buffer at a flow rate of 30 μl/min. The contact time for each of the association steps was 180 seconds and the dissociation step was 3300 seconds. The data was fitted to a 1:1 binding model after double reference subtraction using the Biacore T200 Evaluation software.
On the technique in general: Surface plasmon resonance follows binding to a sensor surface in real time, without labels.

Test [2] deals with T2, cynomolgus PD-1 recombinant protein (cynomolgus).
T2 construct: also called cyno PD-1; cynomolgus PD-1 (Acro Biosystems cat no. PD-1-05254)
The test is described as follows: HTRF binding assay; 2 nM PD-1, anti human-Fc cryptate and anti His-D2. As for the experimental part:
Purified VH were tested for their ability to bind to human PD-1 (R&D Systems cat no. 1086-PD), cynomolgus PD-1 (Acro Biosystems cat no. PD-1-05254) and mouse PD-1 (R&D Systems cat no. 1021-PD) in an HTRF Binding assay format. All reagents and serially diluted VH were prepared in assay buffer containing PBS, 0.1% BSA and 0.4M Potassium Fluoride. Samples or assay buffer (non-specific binding) were incubated with 2 nM human/cynomolgus or mouse PD-1, 1 nM Anti human-Fc Cryptate PAb (Cisbio cat. no. 61HFCKLB) and 30 nM anti His-D2 (CisBio cat no 61HISDLA) in black 384-shallow well assay plates for a minimum of 3 hours at room temperature. Time-resolved fluorescent emission at 620 nm and 665 nm was measured following excitation at 337 nm on the BMG PHERAstar plate reader. The HTRF ratio were calculated ((665 nm emission/620 nm emission)*10000) and the data corrected for (non-specific binding) to give the specific binding signal.
In general terms: In TR-FRET formats the signal depends on donor and acceptor labels being close together.

T1 sequence (Q15116 25-167 limits assumed): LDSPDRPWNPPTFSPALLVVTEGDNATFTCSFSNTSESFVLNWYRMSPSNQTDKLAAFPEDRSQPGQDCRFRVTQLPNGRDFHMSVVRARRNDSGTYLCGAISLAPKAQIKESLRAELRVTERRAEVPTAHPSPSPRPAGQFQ

B1: Humabody® 1.80 (VHH)
VHH: EVQLVESGGGLVKPGGSLRLSCAASGFTFSDSSMTWMRQAPGKGLEWVSYISSGGGVKFYADSVKGRFTISRDNAKNSLYLQMNSLRAEDTAVYYCAREAPLRLGESPHDAFDISGQGTMVTVSS
notes: human VH single domain antibody
For B1, the on-rate (kon) in test [1] worked out at 176000 M⁻¹ s⁻¹.

B2: Humabody® 1.1 (VHH)
VHH: QVQLVESGGGLVKPGGSLRLSCAASGFTFSDYTMTWMRQAPGKGLEWVSYISTGGTIKYYTDSVKGRFTISRDNAKNSLYLQMNSLRADDTAVYYCAREAPLRLGESPHDAFDIWGQGTMVTVSS
notes: human VH single domain antibody; also called clone 1.1
Take B2: the EC50 in test [2] amounted to 6.3 nM.

B3: Humabody® 1.92 (VHH)
VHH: EVQLVESGGGLVKPGGSLRLSCAASGFTFSDESMTWMRQAPGKGLEWVSYISSGGGVKFYADSVKGRFTISRDNAKNSLYLQMNSLRAEDTAVYYCAREAPLRLGESPHDAFDISGQGTMVTVSS
notes: as for B1
B3: the concentration giving a half-maximal response (EC50) in test [2] came out at 4.1 nM.

B4: Humabody® 1.57 (VHH)
VHH: QVQLVESGGGLVKPGGSLRLSCAASGFTFSDNSMTWMRQAPGKGLEWVSYISSGGGVIFYADSVKGRFTISRDNAKNSLYLQMNSLRADDTAVYYCAREAPLRLGESPHDAFDISGQGTMVTVSS
notes: as for B1
In the case of B4, the 50% effective concentration (EC50) in test [2] was found to be 0.75 nM.

One may read the kon as the second-order rate constant of association. By EC50 is commonly meant the concentration that produces a half-maximal response.

The values are drawn from US20230357405A1 (published 2023).
